Data on 3 molecules can be found in patent US20230227538A1 (published 2023).

One assay concerns the target SpikeS2P. The assay is described as follows: SPR. For orientation: SPR reads the build-up and loss of mass on a sensor chip optically.
Assay [1] concerns the target SARS-CoV-2 Spike receptor binding domain (RBD) (SARS-CoV-2, UniProt P0DTC2 319-541). The assay is described as follows: flow.
The target of the next assay is SC2 spike ECD. The assay is described as follows: SPR.

Substitutions are numbered along the chain they refer to.

B1: mNb6 (VHH)
VHH: QVQLVESGGGLVQAGGSLRLSCAASGYIFGRNAMGWYRQAPGKERELVAGITRRGSITYYADSVKGRFTISRDNAKNTVYLQMNSLKPEDTAVYYCAADPASPAYGDYWGQGTQVTVSS
The molecule B1 returned a dissociation constant Kd with SpikeS2P of 0.00045 µM.

B2: Nb6 (AeroNab6, NbCOV6, clone pNbCOV006A) (VHH)
VHH: B1 VHH with Y27I, Y105P
B2: in assay [1], the EC50 turned out to be 0.03 µM.

B3: NbCOV11 (VHH)
VHH: HVQLVESGGGLVQAGGSLRLSCAVSGASAERVGWFRRAPGKEREFVAAIGANGGSTNYLDSVKGRFTISRDNAKNTVYLQMNSLKPQDTAVYYCAARNLETFDYTYWGRGTQVTVSS
In the assay with SC2 spike ECD, B3 yielded a Kd of 0.141 µM.

As a reminder, the Kd is a measure of binding affinity in units of concentration. Usually EC50 stands for the concentration at which the effect is half-maximal.
